Test results from publication PMC8189185 (Structure (London, England : 1993), 2017).

Biological target: the molecule itself
Assay: cryo-EM structure

B1: PilA, major pilin subunit of the Pseudomonas aeruginosa strain K (PaK) Type IV pilus (natural protein)
chain: FTLIELMIVVAIIGILAAIAIPQYQNYVARSEGASALASVNPLKTTVEEALSRGWSVKSGTGTEDATKKEVPLGVAADANKLGTIALKPDPADGTADITLTFTMGGAGPKNKGKIITLTRTAADGLWKCTSDQDEQFIPKGCSR
  binding result: binds
